Data reported in paper PMC9579204, “A simple thermodynamic description of phase separation of Nup98 FG domains” (Nature Communications, 2022).

How the values were obtained:
[1] = target: the molecule itself; test: co-sedimentation; centrifugation assay of phase separation: FG domain diluted into 20 mM NaPi pH 6.8, 5 mM DTT, NaCl, concentration and temperature as in the figures; 21,130 × g, 30 min; pellet (FG phase) and supernatant by SDS-PAGE/Coomassie; saturation concentration = concentration left in the supernatant (Formula Set 2)
[2] = target: the molecule itself; test: dynamic light scattering; self-association as LCST-type phase separation; prf.GLFG_(52×12) diluted into 20 mM NaPi pH 6.8 with 75-1200 mM NaCl, temperature raised by 1 °C per min from 2 to 40 °C; van't Hoff analysis (Formula Set 1)

| Protein | binding result [1] | dH of phase separation when [NaCl] = 0 (van't Hoff) [2] |
| --- | --- | --- |
| prf.GLFG_(26×12) (domain or fragment, also called N = 26; 26× repeats; source: E. coli NEB Express, soluble fraction, purified (Ni(II) chelate column, on-column bdSENP1 cleavage, lyophilized); not shown: histidine tag with a SUMO cleavage site, N-terminal, cleaved) GGLFGGNTQPATGGLFGGNTQPATGGLFGGNTQPATGGLFGGNTQPATGGLFGGNTQPATGGLFGGNTQPATGGLFGGNTQPATGGLFGGNTQPATGGLFGGNTQPATGGLFGGNTQPATGGLFGGNTQPATGGLFGGNTQPATGGLFGGNTQPATGGLFGGNTQPATGGLFGGNTQPATGGLFGGNTQPATGGLFGGNTQPATGGLFGGNTQPATGGLFGGNTQPATGGLFGGNTQPATGGLFGGNTQPATGGLFGGNTQPATGGLFGGNTQPATGGLFGGNTQPATGGLFGGNTQPATGGLFGGNTQPAT | binds |  |
| prf.GLFG_(70×12) (domain or fragment, also called N = 70; not shown: histidine tag with a SUMO cleavage site, N-terminal, cleaved) GGLFGGNTQPATGGLFGGNTQPATGGLFGGNTQPATGGLFGGNTQPATGGLFGGNTQPATGGLFGGNTQPATGGLFGGNTQPATGGLFGGNTQPATGGLFGGNTQPATGGLFGGNTQPATGGLFGGNTQPATGGLFGGNTQPATGGLFGGNTQPATGGLFGGNTQPATGGLFGGNTQPATGGLFGGNTQPATGGLFGGNTQPATGGLFGGNTQPATGGLFGGNTQPATGGLFGGNTQPATGGLFGGNTQPATGGLFGGNTQPATGGLFGGNTQPATGGLFGGNTQPATGGLFGGNTQPATGGLFGGNTQPATGGLFGGNTQPATGGLFGGNTQPATGGLFGGNTQPATGGLFGGNTQPATGGLFGGNTQPATGGLFGGNTQPATGGLFGGNTQPATGGLFGGNTQPATGGLFGGNTQPATGGLFGGNTQPATGGLFGGNTQPATGGLFGGNTQPATGGLFGGNTQPATGGLFGGNTQPATGGLFGGNTQPATGGLFGGNTQPATGGLFGGNTQPATGGLFGGNTQPATGGLFGGNTQPATGGLFGGNTQPATGGLFGGNTQPATGGLFGGNTQPATGGLFGGNTQPATGGLFGGNTQPATGGLFGGNTQPATGGLFGGNTQPATGGLFGGNTQPATGGLFGGNTQPATGGLFGGNTQPATGGLFGGNTQPATGGLFGGNTQPATGGLFGGNTQPATGGLFGGNTQPATGGLFGGNTQPATGGLFGGNTQPATGGLFGGNTQPATGGLFGGNTQPATGGLFGGNTQPATGGLFGGNTQPATGGLFGGNTQPATGGLFGGNTQPATGGLFGGNTQPATGGLFGGNTQPATGGLFGGNTQPAT | binds |  |
| prf.GLFG_(37×12) (domain or fragment, also called N = 37; 37× repeats; not shown: histidine tag with a SUMO cleavage site, N-terminal, cleaved) GGLFGGNTQPATGGLFGGNTQPATGGLFGGNTQPATGGLFGGNTQPATGGLFGGNTQPATGGLFGGNTQPATGGLFGGNTQPATGGLFGGNTQPATGGLFGGNTQPATGGLFGGNTQPATGGLFGGNTQPATGGLFGGNTQPATGGLFGGNTQPATGGLFGGNTQPATGGLFGGNTQPATGGLFGGNTQPATGGLFGGNTQPATGGLFGGNTQPATGGLFGGNTQPATGGLFGGNTQPATGGLFGGNTQPATGGLFGGNTQPATGGLFGGNTQPATGGLFGGNTQPATGGLFGGNTQPATGGLFGGNTQPATGGLFGGNTQPATGGLFGGNTQPATGGLFGGNTQPATGGLFGGNTQPATGGLFGGNTQPATGGLFGGNTQPATGGLFGGNTQPATGGLFGGNTQPATGGLFGGNTQPATGGLFGGNTQPATGGLFGGNTQPAT | binds |  |
| prf.GLFG_(44×12) (domain or fragment, also called N = 44; not shown: histidine tag with a SUMO cleavage site, N-terminal, cleaved) GGLFGGNTQPATGGLFGGNTQPATGGLFGGNTQPATGGLFGGNTQPATGGLFGGNTQPATGGLFGGNTQPATGGLFGGNTQPATGGLFGGNTQPATGGLFGGNTQPATGGLFGGNTQPATGGLFGGNTQPATGGLFGGNTQPATGGLFGGNTQPATGGLFGGNTQPATGGLFGGNTQPATGGLFGGNTQPATGGLFGGNTQPATGGLFGGNTQPATGGLFGGNTQPATGGLFGGNTQPATGGLFGGNTQPATGGLFGGNTQPATGGLFGGNTQPATGGLFGGNTQPATGGLFGGNTQPATGGLFGGNTQPATGGLFGGNTQPATGGLFGGNTQPATGGLFGGNTQPATGGLFGGNTQPATGGLFGGNTQPATGGLFGGNTQPATGGLFGGNTQPATGGLFGGNTQPATGGLFGGNTQPATGGLFGGNTQPATGGLFGGNTQPATGGLFGGNTQPATGGLFGGNTQPATGGLFGGNTQPATGGLFGGNTQPATGGLFGGNTQPATGGLFGGNTQPATGGLFGGNTQPAT | binds |  |
| prf.GLFG_(52×12) (domain or fragment, Engineered after the MacNup98A FG domain, GLEBS deleted; also called perfectly repeated FG domain; N = 52; source: E. coli NEB Express, extracted from inclusion bodies, purified (Ni chromatography, SUMO protease cleavage, lyophilized); not shown: histidine tag with a SUMO cleavage site, N-terminal, cleaved) GGLFGGNTQPATGGLFGGNTQPATGGLFGGNTQPATGGLFGGNTQPATGGLFGGNTQPATGGLFGGNTQPATGGLFGGNTQPATGGLFGGNTQPATGGLFGGNTQPATGGLFGGNTQPATGGLFGGNTQPATGGLFGGNTQPATGGLFGGNTQPATGGLFGGNTQPATGGLFGGNTQPATGGLFGGNTQPATGGLFGGNTQPATGGLFGGNTQPATGGLFGGNTQPATGGLFGGNTQPATGGLFGGNTQPATGGLFGGNTQPATGGLFGGNTQPATGGLFGGNTQPATGGLFGGNTQPATGGLFGGNTQPATGGLFGGNTQPATGGLFGGNTQPATGGLFGGNTQPATGGLFGGNTQPATGGLFGGNTQPATGGLFGGNTQPATGGLFGGNTQPATGGLFGGNTQPATGGLFGGNTQPATGGLFGGNTQPATGGLFGGNTQPATGGLFGGNTQPATGGLFGGNTQPATGGLFGGNTQPATGGLFGGNTQPATGGLFGGNTQPATGGLFGGNTQPATGGLFGGNTQPATGGLFGGNTQPATGGLFGGNTQPATGGLFGGNTQPATGGLFGGNTQPATGGLFGGNTQPATGGLFGGNTQPATGGLFGGNTQPATGGLFGGNTQPAT |  | 24.4 kcal/mol |
